In paper PMC5527686 (Journal of molecular biology, 2017):

B1: IreB Y79E (purified recombinant) (natural protein, Enterococcus faecalis)
chain: MGFTDETVRFDFDDNRKKAISETLETVYRALEEKGYNPINQIVGYLLSGDPAYIPRYQDARNLIRRHERDEIMEELTKEYLANHGIDIK
B2: IreB (purified recombinant wild-type) (natural protein)
chain: MGFTDETVRFDFDDNRKKAISETLETVYRALEEKGYNPINQIVGYLLSGDPAYIPRYQDARNLIRRHERDEIMEELTKYYLANHGIDIK
B3: IreB L81W (purified recombinant) (natural protein, Enterococcus faecalis)
chain: MGFTDETVRFDFDDNRKKAISETLETVYRALEEKGYNPINQIVGYLLSGDPAYIPRYQDARNLIRRHERDEIMEELTKYYWANHGIDIK

Tests used:
SEC = biological target: the molecule itself; experiment: SEC
AUC = biological target: the molecule itself; experiment: AUC

Row | Protein | stoichiometry N (SEC) | stoichiometry N (AUC)
1 | B1 | 2 | –
2 | B2 | 2 | 2.05
3 | B3 | 2 | –
